In patent US20240270854A1 (Stanford University, published 2024):

How the values were obtained:
[1] = molecular target: BMPR2 on skeletal stem cells; experiment: cell-based or functional assay
[2] = molecular target: BMPR1a on skeletal stem cells; experiment: cell-based or functional assay
Sequence of BMPR1a on skeletal stem cells (P36894 whole entry): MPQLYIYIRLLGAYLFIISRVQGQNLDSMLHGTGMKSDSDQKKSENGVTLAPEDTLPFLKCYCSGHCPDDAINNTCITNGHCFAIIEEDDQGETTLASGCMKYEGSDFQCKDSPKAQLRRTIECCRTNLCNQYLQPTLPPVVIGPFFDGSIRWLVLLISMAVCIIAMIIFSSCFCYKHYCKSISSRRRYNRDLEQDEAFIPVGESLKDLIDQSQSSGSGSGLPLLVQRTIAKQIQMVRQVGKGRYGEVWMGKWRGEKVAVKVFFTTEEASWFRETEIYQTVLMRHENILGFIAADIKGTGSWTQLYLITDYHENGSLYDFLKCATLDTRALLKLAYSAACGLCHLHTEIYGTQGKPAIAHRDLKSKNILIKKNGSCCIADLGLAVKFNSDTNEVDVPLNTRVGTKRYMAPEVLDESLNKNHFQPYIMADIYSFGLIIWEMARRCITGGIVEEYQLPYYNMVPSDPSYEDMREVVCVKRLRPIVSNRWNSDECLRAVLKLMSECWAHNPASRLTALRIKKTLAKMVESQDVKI

Sequence of BMPR2 on skeletal stem cells (Q13873 whole entry): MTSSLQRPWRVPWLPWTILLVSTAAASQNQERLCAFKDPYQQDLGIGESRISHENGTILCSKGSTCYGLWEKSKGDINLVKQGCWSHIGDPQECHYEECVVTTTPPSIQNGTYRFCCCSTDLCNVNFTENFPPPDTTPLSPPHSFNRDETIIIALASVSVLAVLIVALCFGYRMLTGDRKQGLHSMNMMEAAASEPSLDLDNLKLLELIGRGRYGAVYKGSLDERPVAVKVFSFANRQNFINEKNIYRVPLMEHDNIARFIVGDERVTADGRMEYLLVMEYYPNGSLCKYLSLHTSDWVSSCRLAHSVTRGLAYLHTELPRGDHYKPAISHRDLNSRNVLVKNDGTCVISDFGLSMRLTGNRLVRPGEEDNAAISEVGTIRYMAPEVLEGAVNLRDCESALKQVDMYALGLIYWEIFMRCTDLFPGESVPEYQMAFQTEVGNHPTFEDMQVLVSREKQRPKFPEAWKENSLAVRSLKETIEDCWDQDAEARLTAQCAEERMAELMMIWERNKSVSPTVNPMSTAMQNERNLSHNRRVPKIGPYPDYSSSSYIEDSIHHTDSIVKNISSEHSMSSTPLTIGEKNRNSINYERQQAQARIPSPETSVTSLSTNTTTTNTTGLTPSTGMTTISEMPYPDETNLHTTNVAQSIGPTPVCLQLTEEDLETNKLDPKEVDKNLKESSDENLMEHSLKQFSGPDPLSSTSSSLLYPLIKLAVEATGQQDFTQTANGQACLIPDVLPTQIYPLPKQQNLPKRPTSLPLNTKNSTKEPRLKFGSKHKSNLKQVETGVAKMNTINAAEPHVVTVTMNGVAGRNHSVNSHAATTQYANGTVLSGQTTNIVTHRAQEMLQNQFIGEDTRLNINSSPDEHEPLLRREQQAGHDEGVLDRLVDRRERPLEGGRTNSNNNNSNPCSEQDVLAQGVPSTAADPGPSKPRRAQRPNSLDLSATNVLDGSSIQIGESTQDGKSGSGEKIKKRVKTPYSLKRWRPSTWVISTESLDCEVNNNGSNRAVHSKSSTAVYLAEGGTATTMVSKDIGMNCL

B1: (NB1-4)-(NB2-43) (bispecific antibody)
chain: QVQLQESGGGLVQAGGSLRLSCAASGTIFYFSIMGWYRQAPGKEREFVAGIGVGSNTYYADSVKGRFTISRDNAKNTVYLQMNSLKPEDTAVYYCAAFDSISGELQYWGQGTQVTVSSGGGGSGGGQVQLQESGGGLVQAGGSLRLSCAASGSISSATVMGWYRQAPGKEREFVAAITAGGTTNYADSVKGRFTISRDNAKNTVYLQMNSLKPEDTAVYYCAVVVFTSQDRIYYYRYWGQGTQVTVSS
Question: For B1, which “p-smad1/5 signaling in SSCs after 30 minutes treatment” value [1] is on record?
Answer: The value was 3 folds higher activation than control.

Question: And the “p-smad1/5 signaling in SSCs after 30 minutes treatment” value [2]?
Answer: The value was 3 folds higher activation than control.
